± gives the standard deviation of the averaged measurements.
System: Saccharomyces cerevisiae
Test: protein stability index of tFT-peptide fusion (C-terminal peptide) (PSI (0-1 scale)); higher = more stable (slower turnover)
Details: temperature: 30 C
Method: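 MPS profiling in S. cerevisiae of the yeast C-terminome library: the last 12 aa of each annotated ORF are fused to the C-terminus of a sfGFP-mCherry timer, after a GGGS linker. Cells are FACS-sorted into 8 mCherry/sfGFP bins and deep-sequenced. PSI runs from 0 (unstable) to 1 (stable); wild type and das1Δ backgrounds, two technical replicates each.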

[1] = genetic background: das1 deletion

| Sequence | protein stability index [1] | protein stability index (genetic background: wild type) |
| --- | --- | --- |
| RRSKKWYSFIFN [SCO2 C-terminal 12 aa] | 0.75 ± 0.018 | 0.731 ± 0.098 |
| RRTSSISTYLIL [YBL107W-A C-terminal 12 aa] | 0.735 ± 0.027 | 0.662 ± 0.043 |
| RRVKSLKTSKKH [PAL2 C-terminal 12 aa] | 0.72 ± 0.017 | 0.686 ± 0.0093 |
| RSIKRPELGLRV [STT3 C-terminal 12 aa] | 0.6814 ± 0.0017 | 0.6862 ± 0.0065 |
| RSLSSRSKECSK [NOC3 C-terminal 12 aa] | 0.71 ± 0.0075 | 0.672 ± 0.045 |
| RSTAQRGGYSAV [ATG27 C-terminal 12 aa] | 0.708 ± 0.0086 | 0.679 ± 0.025 |
| RVDGKIVVTPQI [RPC53 C-terminal 12 aa] | 0.7011 ± 0.0011 | 0.694 ± 0.012 |
| RVFEFLEKQKRE [MRPL40 C-terminal 12 aa] | 0.722 ± 0.025 | 0.723 ± 0.028 |
| RVVDLIEYVAKA [TDH1 C-terminal 12 aa] | 0.6636 ± 0.0045 | 0.703 ± 0.055 |
| RYAKIHEKHVSA [ASN2 C-terminal 12 aa] | 0.7157 ± 0.0026 | 0.7183 ± 0.0066 |
| RYFCHLFRCSII [YDL022C-A C-terminal 12 aa] | 0.722 ± 0.04 | 0.654 ± 0.021 |
| SAITKNLLDDFV [RAV1 C-terminal 12 aa] | 0.735 ± 0.05 | 0.745 ± 0.066 |
| SAYMYTKRRFGF [MNR2 C-terminal 12 aa] | 0.712 ± 0.021 | 0.647 ± 0.017 |
| SDIFSFLDETYE [PHO92 C-terminal 12 aa] | 0.7281 ± 0.007 | 0.718 ± 0.02 |
| SENRFELAYFTS [YLR317W C-terminal 12 aa] | 0.728 ± 0.027 | 0.6901 ± 0.0013 |
| SEPVKQVLDSKE [NMA2 C-terminal 12 aa] | 0.749 ± 0.039 | 0.728 ± 0.078 |
| SFERLLVETIYS [ALG13 C-terminal 12 aa] | 0.5878 ± 0.0031 | 0.624 ± 0.01 |
| SFLFGLYLLLHP [SPR2 C-terminal 12 aa] | 0.4995 ± 0.0033 | 0.484 ± 0.014 |
| SFSDLTLHAIEY [BER1 C-terminal 12 aa] | 0.724 ± 0.031 | 0.69 ± 0.019 |
| SFTDVLGQEQFI [YLR252W C-terminal 12 aa] | 0.7269 ± 0.0054 | 0.699 ± 0.031 |
| SGKFNGKKKSRR [FAF1 C-terminal 12 aa] | 0.693 ± 0.029 | 0.666 ± 0.018 |

| Sequence | protein stability index [1] | protein stability index (genetic background: wild type) |
| --- | --- | --- |
| SHMILYQQQECY [YER181C C-terminal 12 aa] | 0.451 ± 0.0097 | 0.46 ± 0.011 |
| SHPSFKQLLIQK [MLO1 C-terminal 12 aa] | 0.677 ± 0.031 | 0.73 ± 0.025 |
| SIFSYCIIYFIS [YDR524C-A C-terminal 12 aa] | 0.222 ± 0.013 | 0.111 ± 0.02 |
| SIICIETNKAIR [HPM1 C-terminal 12 aa] | 0.705 ± 0.016 | 0.757 ± 0.099 |
| SIIFLLLSYLLF [SAG1 C-terminal 12 aa] | 0.392 ± 0.042 | 0.381 ± 0.0067 |
| SIINPSSNGCNK [YNL235C C-terminal 12 aa] | 0.702 ± 0.028 | 0.615 ± 0.018 |
| SILGMQDMWKAT [PEX11 C-terminal 12 aa] | 0.707 ± 0.017 | 0.713 ± 0.022 |
| SILTHSTSPDSR [HYM1 C-terminal 12 aa] | 0.727 ± 0.033 | 0.718 ± 0.076 |
| SITLDDLENIFN [GDS1 C-terminal 12 aa] | 0.735 ± 0.026 | 0.711 ± 0.021 |
| SKSGSGGCCIIS [RAS2 C-terminal 12 aa] | 0.736 ± 0.0091 | 0.711 ± 0.011 |
| SLIPRFDNLLSK [GGC1 C-terminal 12 aa] | 0.7062 ± 0.0052 | 0.732 ± 0.015 |
| SLLLEKLDPEIE [UBX5 C-terminal 12 aa] | 0.731 ± 0.056 | 0.716 ± 0.013 |
| SLNLILISMTFI [YCR097W-A C-terminal 12 aa] | 0.429 ± 0.0075 | 0.449 ± 0.0049 |
| SLSSRGKIFSST [EFR3 C-terminal 12 aa] | 0.698 ± 0.01 | 0.657 ± 0.011 |
| SNYNNRTTDMPL [PSP2 C-terminal 12 aa] | 0.6781 ± 0.0018 | 0.703 ± 0.1 |
| SPFIPKKRKPRS [SEN1 C-terminal 12 aa] | 0.6983 ± 0.0065 | 0.704 ± 0.036 |
| SPIQLKDLESQI [SYS1 C-terminal 12 aa] | 0.677 ± 0.019 | 0.717 ± 0.0082 |
| SQAIPKKKKVLE [MEK1 C-terminal 12 aa] | 0.6937 ± 0.0011 | 0.6887 ± 0.0063 |
| SQGNVYLPGVAW [NOC4 C-terminal 12 aa] | 0.707 ± 0.009 | 0.738 ± 0.081 |
| SQLLNLLQDLDT [ENV7 C-terminal 12 aa] | 0.696 ± 0.02 | 0.722 ± 0.011 |
| SRFRTNIAFITQ [YJL015C C-terminal 12 aa] | 0.71 ± 0.012 | 0.70081 ± 0.00066 |

| Sequence | protein stability index [1] | protein stability index (genetic background: wild type) |
| --- | --- | --- |
| SRGHDLASEYPL [ERS1 C-terminal 12 aa] | 0.706 ± 0.015 | 0.682 ± 0.0085 |
| SRLFSEEKSSVH [YJL150W C-terminal 12 aa] | 0.7239 ± 0.0066 | 0.694 ± 0.024 |
| SRQFEQNLQIND [SLF1 C-terminal 12 aa] | 0.7394 ± 0.0052 | 0.676 ± 0.013 |
| SRSGPDSTNIKL [MPP10 C-terminal 12 aa] | 0.688 ± 0.011 | 0.667 ± 0.0034 |
| SSIFVRVYKFWC [BAP3 C-terminal 12 aa] | 0.698 ± 0.018 | 0.716 ± 0.096 |
| SSNFASNIFSLF [YBR089W C-terminal 12 aa] | 0.7346 ± 0.0049 | 0.448 ± 0.01 |
| SSQQLTLRPPLG [YGL109W C-terminal 12 aa] | 0.6922 ± 0.0068 | 0.669 ± 0.0086 |
| SSSSNFLEESSS [YER148W-A C-terminal 12 aa] | 0.7024 ± 0.00079 | 0.6861 ± 0.006 |
| SSTTALDALNKE [TGL1 C-terminal 12 aa] | 0.696 ± 0.0083 | 0.684 ± 0.048 |
| SSVKNSVEMTDF [TDA11 C-terminal 12 aa] | 0.7099 ± 0.0049 | 0.698 ± 0.012 |
| SSYNSNVGHIKN [WHI3 C-terminal 12 aa] | 0.705 ± 0.019 | 0.736 ± 0.0042 |
| STIQTTSVDPTT [BSC1 C-terminal 12 aa] | 0.7104 ± 0.0039 | 0.682 ± 0.036 |
| STIRRLREMVEA [RPL43A C-terminal 12 aa] | 0.547 ± 0.013 | 0.539 ± 0.028 |
| STKILETSANYL [RVB1 C-terminal 12 aa] | 0.69 ± 0.019 | 0.679 ± 0.047 |
| STLSRPFTWEEI [ATG34 C-terminal 12 aa] | 0.715 ± 0.031 | 0.75193 ± 0.00031 |
| SVHLDQLLDGKE [CSI2 C-terminal 12 aa] | 0.714 ± 0.0086 | 0.669 ± 0.013 |
| SVLQQTSKEPFW [HOS4 C-terminal 12 aa] | 0.732 ± 0.016 | 0.6975 ± 0.0026 |
| SYEIFEGSKKVM [CET1 C-terminal 12 aa] | 0.699 ± 0.033 | 0.6785 ± 0.0039 |
| SYKSNQPSSQNT [MDM36 C-terminal 12 aa] | 0.672 ± 0.017 | 0.675 ± 0.0096 |
| TAAQMLEVQNEA [ARI1 C-terminal 12 aa] | 0.6837 ± 0.0021 | 0.7016 ± 0.0034 |
| TALDYVSEKKKN [STE24 C-terminal 12 aa] | 0.679 ± 0.012 | 0.7093 ± 0.0027 |

| Sequence | protein stability index [1] | protein stability index (genetic background: wild type) |
| --- | --- | --- |
| TDGPNEKWLPDY [SKS1 C-terminal 12 aa] | 0.7099 ± 0.0056 | 0.712 ± 0.046 |
| TDISGEKNSSKI [RLM1 C-terminal 12 aa] | 0.7039 ± 0.0055 | 0.756 ± 0.031 |
| TDTTLIYDIDLE [SPT8 C-terminal 12 aa] | 0.709 ± 0.036 | 0.718 ± 0.039 |
| TEEVEKAISKSQ [YFH1 C-terminal 12 aa] | 0.7018 ± 0.0027 | 0.7208 ± 0.0067 |
| TESENDALDDLL [TLG2 C-terminal 12 aa] | 0.714 ± 0.013 | 0.707 ± 0.0078 |
| TGMGAAAIFIKE [POT1 C-terminal 12 aa] | 0.688 ± 0.04 | 0.752 ± 0.049 |
| TIDFFDPVKLKR [YEL025C C-terminal 12 aa] | 0.724 ± 0.008 | 0.755 ± 0.015 |
| TKDGEVVKESKK [PET117 C-terminal 12 aa] | 0.677 ± 0.034 | 0.676 ± 0.027 |
| TKEEIMHGLQAK [RPN5 C-terminal 12 aa] | 0.682 ± 0.024 | 0.728 ± 0.01 |
| TLEDLGAKVSLE [MNP1 C-terminal 12 aa] | 0.696 ± 0.011 | 0.711 ± 0.031 |
| TLNFEEARKEYV [YDR509W C-terminal 12 aa] | 0.713 ± 0.016 | 0.728 ± 0.035 |
| TNGNKSCLYWRV [FMP25 C-terminal 12 aa] | 0.678 ± 0.012 | 0.66 ± 0.044 |
| TNQASPHHIFRG [ORA1 C-terminal 12 aa] | 0.702 ± 0.016 | 0.752 ± 0.038 |
| TQEMENTKLAES [GIS1 C-terminal 12 aa] | 0.692 ± 0.01 | 0.757 ± 0.0079 |
| TRSSGDDQVFVF [PGA3 C-terminal 12 aa] | 0.707 ± 0.0082 | 0.707 ± 0.012 |
| TSTITTTITMTL [SHE10 C-terminal 12 aa] | 0.636 ± 0.041 | 0.652 ± 0.042 |
| TTDNVTVMVVFL [PTC1 C-terminal 12 aa] | 0.489 ± 0.0077 | 0.5071 ± 0.0035 |
| TVFASNSFGVYV [OST5 C-terminal 12 aa] | 0.669 ± 0.02 | 0.709 ± 0.06 |
| TVGTGLITRIIE [TUF1 C-terminal 12 aa] | 0.694 ± 0.032 | 0.6945 ± 0.0066 |
